One assay has as its target T1, rat recombinant ADAMTS5 (rat, UniProt Q9R001 262-618 (mouse entry)).
T1 construct: in house, HEK293, His tag in the entry
T1 chain: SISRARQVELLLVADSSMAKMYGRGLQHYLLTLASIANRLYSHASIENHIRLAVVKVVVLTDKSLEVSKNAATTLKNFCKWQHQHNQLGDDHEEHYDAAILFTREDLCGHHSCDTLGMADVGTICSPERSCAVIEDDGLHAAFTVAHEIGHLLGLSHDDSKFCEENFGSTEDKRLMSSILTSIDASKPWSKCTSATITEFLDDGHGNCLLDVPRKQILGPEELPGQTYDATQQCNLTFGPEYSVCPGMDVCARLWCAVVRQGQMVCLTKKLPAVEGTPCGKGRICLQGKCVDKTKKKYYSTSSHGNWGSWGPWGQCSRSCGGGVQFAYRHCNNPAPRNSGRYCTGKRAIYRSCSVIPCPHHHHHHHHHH
The experiment in a line: SPR kinetics, Biacore T100, ADAMTS5 immobilised. The procedure:
(§1) For referencing, affinity for human ADAMTS5 was also determined. Thereto, rat and human ADAMTS5 were immobilized onto a CM5 chip via amine coupling, using EDC and NHS chemistry. Purified Nanobodies were injected for 2 minutes at different concentrations (between 1 and 1000 nM) and allowed to dissociate for 25 min at a flow rate of 45 μl/min. The kinetic constants were calculated from the sensorgrams using the BIAEvaluation software (1:1 interaction).
Background: SPR reads the build-up and loss of mass on a sensor chip optically.

Assay [1] deals with T2, recombinant human ADAMTS5 (R&D Systems cat #2198-AD) (human, UniProt Q9UNA0 262-622, limits assumed).
T2 construct: bought protein
T2 sequence: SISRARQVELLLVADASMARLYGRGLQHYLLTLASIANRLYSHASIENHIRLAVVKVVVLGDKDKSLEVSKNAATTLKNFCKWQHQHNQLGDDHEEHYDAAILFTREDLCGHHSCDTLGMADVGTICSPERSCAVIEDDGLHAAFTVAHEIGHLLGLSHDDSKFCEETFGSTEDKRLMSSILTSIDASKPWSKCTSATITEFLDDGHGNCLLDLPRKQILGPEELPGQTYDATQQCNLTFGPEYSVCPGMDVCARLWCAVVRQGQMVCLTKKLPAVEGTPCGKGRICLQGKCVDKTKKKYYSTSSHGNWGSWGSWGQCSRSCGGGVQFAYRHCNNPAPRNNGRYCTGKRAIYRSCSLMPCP
The experiment in a line: SPR kinetics, Biacore T100, ADAMTS5 immobilised. The procedure: as §1

Assay [2] deals with T2, recombinant human ADAMTS5 (R&D Systems …). Nature of the assay: SPR off-rate, Biacore T100, ADAMTS5 immobilised, experiment 2. The protocol:
(§2) Species cross-reactivity was initially evaluated via SPR-based off-rate analysis on a Biacore T100 instrument. Nanobodies were tested for binding to human, cynomolgus monkey (“cyno”), guinea pig, mouse, and bovine ADAMTS5. To this end, recombinant ADAMTS5 was immobilized onto a CM5 chip via amine coupling using EDC and NHS. Purified Nanobodies were injected for 2 minutes at a concentration of 100 nM and allowed to dissociate for 15 min at a flow rate of 45 ul/min. Off-rate for each individual Nanobody was determined by fitting a 1:1 interaction model (Langmuir model) onto the individual dissociation curves using the BIA Evaluation software. As a reference, off-rates on human ADAMTS5 were determined in each experiment.

Assay [3] deals with T3, mouse recombinant ADAMTS5 (mouse, UniProt Q9R001 262-622, limits assumed).
T3 construct: in house, HEK293, His tag in the entry
T3 sequence: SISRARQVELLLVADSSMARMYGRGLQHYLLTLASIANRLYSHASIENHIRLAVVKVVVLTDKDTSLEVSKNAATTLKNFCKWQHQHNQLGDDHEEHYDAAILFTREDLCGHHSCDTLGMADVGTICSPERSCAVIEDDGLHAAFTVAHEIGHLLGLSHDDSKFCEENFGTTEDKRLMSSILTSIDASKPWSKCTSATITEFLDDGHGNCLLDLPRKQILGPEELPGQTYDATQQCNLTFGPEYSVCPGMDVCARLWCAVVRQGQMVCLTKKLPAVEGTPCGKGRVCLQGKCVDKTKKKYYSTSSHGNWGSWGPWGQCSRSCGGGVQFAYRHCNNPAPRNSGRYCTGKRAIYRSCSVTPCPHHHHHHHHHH
Described as above. The protocol:
as §2

In assay [4] the target is T2, recombinant human ADAMTS5 (R&D Systems …). The experiment in a line: cell-based or functional assay.

B1: Nanobody 2A12 (VHH)
VHH: EVQLVESGGGLVQAGGSLRLSCAASGRTFSSYAMGWFRQAPGKERDFVAGISRSAGRTYYVDSVKGRFTISRDSAKNTVYLQMNRLKPEDTAVYYCAADLDPNRIFSRDEAAYWGQGTLVTVSS
notes: tagged as tested (anti-Flag detection, IMAC); also called 02A12
Usually Kd stands for a measure of binding affinity in units of concentration. In general, koff refers to the first-order rate constant of dissociation. As to B1, the Kd was determined as 1 nM with rat recombinant ADAMTS5 and 1.9 nM in assay [1]. The koff is 0.00023 s⁻¹ in assay [2] and 0.00044 s⁻¹ in assay [3]. For the same molecule, the “AlphaLISA IC50, - HSA” value in assay [4] turned out to be 0.15 nM.

B2: Nanobody 2F03 (VHH)
VHH: EVQLVESGGGLVQAGGSLRLSCAASGRTVSSYAMGWFRLAPGKEREFVAGISRSAERTYYVDSLKGRFTISRDSAKNTVYLHMNRLKPEDTAVYYCAADLDPNRIFSREEYAYWGQGTLVTVSS
notes: tagged as tested (anti-Flag detection, IMAC); also called 02F03; 2F3
Turning to B2, the Kd was determined as 0.7 nM in the assay with rat recombinant ADAMTS5 and 1.6 nM in assay [1]. Besides, the koff in assay [2] came out at 6.5e-05 s⁻¹; in assay [3], 0.00029 s⁻¹. In addition, in assay [4], the “AlphaLISA IC50, - HSA” value stood at 0.075 nM.

The record behind these values is patent US20200317802A1 (Merck KGaA, published 2020).
